Experimental findings from patent publication US20200055952A1 (B CELL DESIGN, published 2020) are described below.

Experiment [1] deals with carcinoembryonic antigen (CEA) on WiDr human colorectal cancer cells (human) (UniProt P06731). Description: cell-based or functional assay.
The target of a further experiment is T1, CEACAM-6 (NCA or CD66c) (UniProt P40199 35-320, limits assumed).
T1 construct: whole, on cells
T1 sequence (looked up): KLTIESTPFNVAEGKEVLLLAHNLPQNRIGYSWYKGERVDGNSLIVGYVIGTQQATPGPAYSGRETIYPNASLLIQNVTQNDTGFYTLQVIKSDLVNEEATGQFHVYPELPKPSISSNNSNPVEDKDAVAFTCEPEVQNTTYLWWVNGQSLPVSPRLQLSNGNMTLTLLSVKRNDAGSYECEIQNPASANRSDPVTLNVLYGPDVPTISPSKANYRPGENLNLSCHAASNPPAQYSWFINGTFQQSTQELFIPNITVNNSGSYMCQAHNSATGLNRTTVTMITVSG
Kind of experiment: immunofluorescence on tissues (liver and stomach) and flow cytometry on leukocytes, data not shown.

Molecule “irrelevant polymeric IgA anti-peanut (antibody)” gave a doubly selected cells (Effector Cell (CD89+): WiDr target cells (CEA+)) by flow cytometry, in vivo in SCID-CD89 mice in experiment [1] of 10.2%.

B1: anti-CEA IgA monoclonal antibody clone 15B3 (human/mouse chimeric IgA1, hybridoma culture supernatant) (antibody, V domains shown)
VH: QIQLVQSGPELKKPGETVKISCKASGYTFTNYGMNWVNQAPGKGLKWMGWINTNTGEPTYAEEFKGRFAFSLETSASTAYLQINNLKNEDTATYFCARLWYLYFDVWGAGTTVTVSS
VL: DIQMTQSPASQSASLGESVTITCLASQTIGTRLAWYQQKPGKSPQLLIYAATRLADGVPSRFSGSGSGTKFSFKISSLQAEDFVSYYCQQLYSTPYTFGGGTKLEIK
notes: From HAMIGA mice: human IgA1 heavy chain constant regions, mouse light chain constant regions, mouse variable regions; The hybridoma supernatant holds monomeric (no J chain) and polymeric (murine J chain) forms; also called mAb 15B3; IgA anti-CEA clone #15B3
With B1, the binding result with CEACAM-6 (NCA or CD66c) is “no binding”.
